Here are results for three molecules from patent US20240150489A1 (ICHNOS SCIENCES, published 2024).

For experiment [1], the target named is T1, human CD47-ECD-Avi-His (human).
T1 construct: also called recombinant human CD47-avi-his protein; recombinant human CD47 protein
The experiment can be described thus: SPR, CD47 amine-coupled, Fab analyte, 1:1 fit.

Experiment [2] deals with T2, cynomolgus CD47-ECD-Avi-His (cynomolgus monkey).
T2 construct: also called recombinant cynomolgus monkey CD47-avi-his protein
T2 chain: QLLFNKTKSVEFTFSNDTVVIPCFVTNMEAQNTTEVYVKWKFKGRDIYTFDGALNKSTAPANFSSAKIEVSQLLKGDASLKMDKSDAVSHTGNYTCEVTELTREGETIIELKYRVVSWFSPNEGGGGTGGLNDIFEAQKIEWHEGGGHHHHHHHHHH
The experiment can be described thus: SPR, CD47 amine-coupled, Fab analyte, 1:1 fit. Background: Surface plasmon resonance follows binding to a sensor surface in real time, without labels.

In experiment [3] the target is T1, human CD47-ECD-Avi-His. In words: SPR; human CD47; value given in the text of paragraph 230.
The target in experiment [4] is T2, cynomolgus CD47-ECD-Avi-His. The experiment can be described thus: SPR; cynomolgus monkey CD47; value given in the text of paragraph 230.
Experiment [5] addresses T3, recombinant biotinylated human CD38 Avitag, His Tag (Acrobiosystems, CD8-H82E7) (human, UniProt P28907 43-300, biotinylated (Avitag)).
T3 construct: Bought protein; also called biotinylated human CD38-avi-his protein; biotinylated recombinant human CD38 protein
The experiment can be described thus: SPR, biotinylated CD38 captured, Fab analyte, 1:1 fit.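 Note: biacore T200 at 25 °C, single-cycle kinetics with Fab injected at 7.8–2000 nM for 3 min, dissociation followed 5 min, reference flow path subtracted.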

Experiment [6] addresses T4, recombinant cynomolgus monkey CD38-ECD-C-his (cynomolgus monkey, UniProt Q5VAN0 45-301).
T4 construct: Extracellular region fused to 6-His; also called cyno CD38-C-His; recombinant cynomolgus monkey CD38 protein
The experiment can be described thus: SPR, His-captured cyno CD38, Fab analyte; NB = no detectable binding.

Experiment [7] deals with T5, Human FcyRI (human, UniProt P12314 16-288, limits assumed).
T5 construct: also called FcγRIa
In words: SPR; reference trastuzumab.

Experiment [8] has as its target T6, Human FcyRIIA (human, UniProt P12318 34-208, limits assumed).
T6 construct: also called FcγRIIa
T6 chain: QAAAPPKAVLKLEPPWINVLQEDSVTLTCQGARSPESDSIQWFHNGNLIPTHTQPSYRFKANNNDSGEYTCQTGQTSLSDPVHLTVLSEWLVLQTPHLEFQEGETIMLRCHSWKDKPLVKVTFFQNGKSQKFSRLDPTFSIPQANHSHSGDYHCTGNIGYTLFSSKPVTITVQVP
In words: SPR; reference trastuzumab.

In experiment [9] the target is T7, Human FcyRIIB (human, UniProt P31994 46-217, limits assumed).
T7 construct: also called FcγRIIb
T7 sequence (looked up): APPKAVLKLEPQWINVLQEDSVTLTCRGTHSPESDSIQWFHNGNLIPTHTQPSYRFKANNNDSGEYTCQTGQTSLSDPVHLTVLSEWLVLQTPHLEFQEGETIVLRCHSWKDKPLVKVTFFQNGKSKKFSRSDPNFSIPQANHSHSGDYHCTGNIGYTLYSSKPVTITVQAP
The experiment can be described thus: SPR; reference trastuzumab.

Experiment [10] has as its target T8, Human FcyRIIIA (human, UniProt P08637 17-193, limits assumed).
T8 construct: also called FcγRIIIa
The experiment can be described thus: SPR; reference trastuzumab.

Experiment [11] concerns the target T6, Human FcyRIIA. The experiment can be described thus: SPR, antibody on Protein G chip, steady state.
Experiment [12] addresses T7, Human FcyRIIB. In words: SPR, antibody on Protein G chip, steady state.
Experiment [13] has as its target T8, Human FcyRIIIA. The experiment can be described thus: SPR, antibody on Protein G chip, steady state.
The target of experiment [14] is T5, Human FcyRI. In words: SPR, antibody on Protein G chip, 1:1 binding model.
Experiment [15] concerns the target T9, Human FcRn (human, UniProt P55899 24-297, limits assumed).
T9 construct: Measured at pH 6.0; also called human FcRn receptor
The experiment can be described thus: SPR, antibody on Protein L chip, steady state, pH 6.0.

Experiment [16] has as its target T10, human FcRn-ECD-Avi-His / B2M complex (human, UniProt P61769 21-119).
T10 construct: B2M was cloned full length with its native leader; The alternative SPR method for BEAT CD38/CD47-60 says only 'FcRn' as analyte; the tie to the in-house complex is inferred; also called human FcRn/B2M complex
In words: SPR steady state, antibody captured with Human Fab Capture kit, FcRn analyte; reference trastuzumab control IgG1.

In experiment [17] the target is T11, CD38 on cells (Daudi, Raji, KMS-12-PE, NCI-H929, KMS-12-BM) (human, UniProt P28907).
T11 construct: full-length, cell surface; These cells also carry CD47
The experiment can be described thus: flow cytometry on Raji cells (carry CD38 and CD47), anti-human IgG-Fc PE, GeoMFI; apparent whole-cell value, the anti-CD47 arm also binds. (In general: In flow cytometry, cells or beads pass a laser one at a time.)

Experiment [18] addresses T11, CD38 on cells (Daudi, Raji, KMS-12-PE, …). In words: flow cytometry on Daudi cells (carry CD38 and CD47), anti-human IgG-Fc PE, GeoMFI; apparent whole-cell value, the anti-CD47 arm also binds.
Experiment [19] shares this target. In words: flow cytometry on NCI-H929 cells (carry CD38 and CD47), anti-human IgG-Fc PE, GeoMFI; apparent whole-cell value, the anti-CD47 arm also binds.
Experiment [20] has the same target. In words: flow cytometry on KMS-12-PE cells (carry CD38 and CD47), anti-human IgG-Fc PE, GeoMFI; apparent whole-cell value, the anti-CD47 arm also binds.
For experiment [21] the target is unchanged. The experiment can be described thus: flow cytometry on KMS-12-BM cells (carry CD38 and CD47), anti-human IgG-Fc PE, GeoMFI; apparent whole-cell value, the anti-CD47 arm also binds.
The target in experiment [22] is T12, CD47 on cells (Daudi cells; human red blood cells) (human, UniProt Q08722 19-323).
T12 construct: whole, on cells; These cells also carry CD38
In words: blocking of SIRPα-mIgG1 Fc binding to CD47 on Daudi cells, image-based readout with anti-mouse IgG Fc Alexa Fluor 647, % inhibition; the sheet calls the half-maximal value EC50.

B1: anti-CD47-UCP01-H2 FAB (Fab, V domains shown)
VH: EVQLVESGGGLIQPGGSLRLSCAASGFTLSRNTMHWVRQAPGKGLEWVSVIYQSGVTRYADSVKGRFTISRDNSKNTLYLQMNSLRAEDTAVYYCARGRYGVAGGPGYAFDVWGQGTLVTVSS
VL: not shown
notes: human IgG1 Fab; also called anti-CD47-H2; anti-CD47-H2 Fab
The Kd is the constant that tells how readily two partners part at equilibrium. As to B1, the Kd turned out to be 878 nM in experiment [1], 939 nM in experiment [2], 104 nM in experiment [3] and 142 nM in experiment [4].

B2: Anti-CD38-UCP01-D1 Fab (Fab, V domains shown)
VH: QVQLVQSGAEVKKPGSSVKVSCKASGGIFNGYLISWVRQAPGQGLEWMGGIIPVNGLADYAQKFQGRVTITADESTSTAYMELSSLRSEDTAVYYCARTIGRYIIAFDYWGQGTLVTVSS
VL: not shown
notes: human IgG1 Fab
On to B2, for which, in experiment [5], the Kd came to 666 nM. Also, the binding result in experiment [6] is on record as “no binding (tested: 2000 nM)”.

B3: BEAT CD38/CD47-60 (bispecific antibody, human IgG1, kappa)
heavy 1: EVQLVESGGGLIQPGGSLRLSCAASGFTLSRNTMHWVRQAPGKGLEWVSVIYQSGVTRYADSVKSRFTISRDNSKNTLYLQMNSLRAEDTAVYYCARGRYGVAGGPGYAFDVWGQGTLVTVSSASTKGPSVFPLAPSSKSTSGGTAALGCLVKDYFPEPVTVSWNSGALTSGVHTFPAVLQSSGLYSLSSVVTVPSSSLGTQTYICNVNHKPSNTKVDKKVEPKSCDKTHTCPPCPAPELLGGPDVFLFPPKPKDTLMISRTPEVTCVVVDVSHEDPEVKFNWYVDGVEVHNAKTKPREEQYNSTYRVVSVLTVLHQDWLNGKEYKCKVNNKALPAPEEKTISKAKGQPREPAVYTLPPSREEMTKNQVKLVCLVTGFYPSDIAVEWESSGQPENNYYTTPPMLDSDGSFSLVSWLNVDKSRWQQGNIFSCSVMHEALHNRFTQKSLSLSPG
heavy 2: not shown
light: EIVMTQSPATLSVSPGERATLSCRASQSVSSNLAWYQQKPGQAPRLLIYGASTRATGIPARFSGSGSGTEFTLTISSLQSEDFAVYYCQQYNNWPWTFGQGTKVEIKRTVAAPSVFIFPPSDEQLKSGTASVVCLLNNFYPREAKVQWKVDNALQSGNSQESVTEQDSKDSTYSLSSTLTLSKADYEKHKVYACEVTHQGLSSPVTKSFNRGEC
notes: 2+1 biparatopic format; BEAT (A): S239D + I332E + S324N, BEAT (B): S324N; also called BEAT CD38/47-60; BEAT 38/47-60
Broadly, the EC50 (read off the curve) is the concentration at which the effect is half-maximal. Consider B3, for which the “fold enhancement BEAT CD38/47-60 over trastuzumab” value in experiment [7] was 2.6 fold; in experiment [8], 4.4 fold; in [9], 6.7 fold; in [10], 5.6 fold. Also, the equilibrium dissociation constant (Kd) is 110 nM in experiment [11]; 306 nM in experiment [12]; 15.1 nM in experiment [13]; 0.07 nM in experiment [14]; 418 nM in experiment [15]. The “KD ratio [BEAT/Control IgG1]” value in experiment [16] stood at 0.5 ratio. For the same molecule, the “EC50 (read off the curve)” value is ~4 nM in [17]; ~4 nM in experiment [18]; ~8 nM in [19]; ~3 nM in experiment [20]; ~30 nM in experiment [21]. Moreover, the “IC50 (read off the curve)” value in experiment [22] is ~0.03 nM.
